Results published in publication PMC8615163.

Columns and labels:
[1] = biological target: HIS-tagged integrin αvβ3 (ACRO Biosystems IT3-H52E3) (UniProt P06756); assay: radioligand binding; 125I-labeled NP-011 (0–100 μg/mL) incubated in plates coated with HIS-tagged integrin; 50 mM Tris, 5 mM MgCl2, 100 mM NaCl, 1% BSA, pH 7.4; Kd by nonlinear curve fitting (Prism); done by Gifford Bioscience
[2] = biological target: HIS-tagged integrin αvβ5 (ACRO Biosystems IT5-H52W5) (UniProt P06756); assay: as above
[3] = biological target: HIS-tagged integrin αvβ5 (ACRO Biosystems IT5-H52W5) (UniProt P06756); assay: radioligand binding; binding affinity assay of MFG-E8 to integrin αVβ5 (Supplementary Figure S2); told with the radioligand binding assays, its own methods not shown

Kd [1]	Kd [2]	Kd [3]	Molecule
50.4 nM	2 nM	–	NP-011 (truncated form of MFG-E8, EGF + C1 domain) (from UniProt Q08431 24-387) (domain or fragment)
–	–	25.4 nM	Milk fat globule-EGF factor 8 (MFG-E8) (natural protein) LDICSKNPCHNGGLCEEISQEVRGDVFPSYTCTCLKGYAGNHCETKCVEPLGLENGNIANSQIAASSVRVTFLGLQHWVPELARLNRAGMVNAWTPSSNDDNPWIQVNLLRRMWVTGVVTQGASRLASHEYLKAFKVAYSLNGHEFDFIHDVNKKHKEFVGNWNKNAVHVNLFETPVEAQYVRLYPTSCHTACTLRFELLGCELNGCANPLGLKNNSIPDKQITASSSYKTWGLHLFSWNPSYARLDKQGNFNAWVAGSYGNDQWLQVDLGSSKEVTGIITQGARNFGSVQFVASYKVAYSNDSANWTEYQDPRTGSSKIFPGNWDNHSHKKNLFETPILARYVRILPVAWHNRIALRLELLGC
